Entries after “also recorded” stand apart in the source; their conditions may differ. Ends that are not written are not given here. * marks the point of attachment. FITC = O=C1OC2(c3ccc(O)cc3Oc3cc(O)ccc32)c2ccc(NC(=S)*)cc21; Biotin = O=C1N[C@H]2[C@H](CS[C@H]2CCCCC(=O)*)N1; βAla = NCCC(=O)O
How the values were obtained:
Sec7-domain of ARNO = target: T1, Sec7-domain of ARNO (Homo sapiens, UniProt Q99418); assay: a2N-derived peptide pull-down with GST-Sec7 domain; assay type: binding; conditions: GST-Sec7-6His
T1 construct: iii) 61-252aa, Sec7 domain; GST (N, cleaved yes); made in house; host or cells: E. coli BL21(DE3)
T1 sequence (Q99418 61-252): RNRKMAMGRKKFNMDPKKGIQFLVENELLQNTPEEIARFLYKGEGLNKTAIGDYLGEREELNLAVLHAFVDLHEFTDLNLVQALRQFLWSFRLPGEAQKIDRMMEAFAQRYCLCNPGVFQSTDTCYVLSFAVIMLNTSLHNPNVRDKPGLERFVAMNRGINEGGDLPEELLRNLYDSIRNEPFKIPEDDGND
Experimental: (§1) FIGS. 5A-C are a set of three images of Western blots showing the identification of interaction motif of a2N that is involved in specific binding with the Sec7 domain of ARNO. 5A, The catalytic Sec7 domain of ARNO interacts with two a2N-derived peptides, a2N-01 and a2N-03, in pull-down experiments. The peptide pull-down assay was performed with six a2N-derived interaction peptides immobilized on streptavidin-beads and incubated with purified recombinant GST-only or GST-Sec7 domain. Interacting complexes were eluted and analyzed by Western blotting using monoclonal anti-GST antibodies as described below. The loading controls for GST-only (lane 1) or GST-Sec7 (lane 2) are shown. […] The peptide pull-down assay was performed with peptides a2N-01 and a2N-03 immobilized on streptavidin-beads and incubated with purified recombinant GST-PH domain (5B) or GST-PB domain (5C). Interacting complexes were eluted and analyzed by Western blotting using monoclonal anti-GST antibodies. […]
(§2) These a2N-derived peptides were immobilized by an N-terminal biotin-tag, which ensured the same efficiency and equivalent binding to streptavidin-agarose beads. […] After washing beads four times in ice-cold binding buffer, the interacting complexes were eluted by boiling in SDS-PAGE sample buffer for 10 min at 95° C., resolved by SDS-PAGE and analyzed by Western blotting using monoclonal anti-GST antibody.

GST-ARNO(wt) = target: T2, GST-ARNO(wt) (Homo sapiens, UniProt Q99418); assay: a2N-derived peptide pull-down assay with GST-ARNO(wt); assay type: binding; parameters: key to interaction with ARNO (asterisk mark in Table 1): The interacting peptides are indicated in bold with an asterisk (*)
T2 construct: i) 1-400aa, full length ARNO(wt); made in house; host or cells: E. coli BL21(DE3)
T2 sequence (Q99418 1-400): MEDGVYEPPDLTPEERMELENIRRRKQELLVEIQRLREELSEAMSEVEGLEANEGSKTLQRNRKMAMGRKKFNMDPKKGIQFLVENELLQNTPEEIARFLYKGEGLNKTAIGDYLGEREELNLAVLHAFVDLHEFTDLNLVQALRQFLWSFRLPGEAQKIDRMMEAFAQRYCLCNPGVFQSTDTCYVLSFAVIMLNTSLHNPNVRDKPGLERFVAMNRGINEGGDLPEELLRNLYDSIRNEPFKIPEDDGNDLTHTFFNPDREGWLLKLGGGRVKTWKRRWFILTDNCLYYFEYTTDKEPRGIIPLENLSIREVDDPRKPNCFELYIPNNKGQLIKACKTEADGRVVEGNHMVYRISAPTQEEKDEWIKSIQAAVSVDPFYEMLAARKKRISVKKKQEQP
Experimental: FIG. 2A is an image of a Western blot showing the results of an a2N-derived peptide pull-down assay. The indicated a2N-derived peptides were immobilized on streptavidin-beads and incubated with purified recombinant GST-ARNO(wt). Interacting complexes were eluted and analyzed by Western blotting using monoclonal anti-GST antibodies.
FIG. 2B is an image of a Western blot showing the results of a pull-down assay with selected a2N-derived interacting peptides incubated with either GST (negative control) or GST-ARNO(wt). The first two lanes show the patterns obtained when either GST-only (lane 1) or GST-ARNO(wt) (lane 2) were loaded onto the gel.
Peptides were synthesized, purified by HPLC and analyzed by mass spectrometry in the MGH Peptide/Protein Core Facility. All a2N-derived peptides were synthesized with a biotin-tag on the N-terminus for immobilization on streptavidin-agarose beads and with an additional C-terminal cysteine residue for immobilization on beads using sulfhydryl-specific crosslinkers. A peptide corresponding to the PB-domain of ARNO was synthesized containing either a non-phosphorylated or a phosphorylated Ser392 residue. Peptide stock solutions were prepared in DMSO at 5 mM concentration and stored at −20° C. […]

PB-domain of ARNO = target: T3, PB-domain of ARNO (Homo sapiens, UniProt Q99418); assay: a2N-derived peptide pull-down with GST-PB domain; assay type: binding
T3 construct: v) 379-400aa, polybasic (PB) domain; made in house; host or cells: E. coli BL21(DE3)
Experimental: as §1
as §2, with “antibody. […]” for “antibody.”

PH-domain of ARNO = target: T4, PH-domain of ARNO (Homo sapiens, UniProt Q99418); assay: a2N-derived peptide pull-down with GST-PH domain; assay type: binding
T4 construct: iv) 253-378aa, plekstrin-homology (PH) domain; made in house; host or cells: E. coli BL21(DE3)
T4 sequence (Q99418 253-378): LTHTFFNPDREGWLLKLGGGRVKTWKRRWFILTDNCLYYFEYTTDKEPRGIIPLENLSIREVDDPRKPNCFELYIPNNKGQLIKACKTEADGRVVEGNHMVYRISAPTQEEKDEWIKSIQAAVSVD
Experimental: as §1
as §2, with “antibody. […]” for “antibody.”

GST-only = target: T5, GST-only (UniProt P08515 1-218 = GST); assay: peptide pull-down: biotinylated peptide on streptavidin beads, GST-only in solution, Western blot with anti-GST antibody
T5 construct: Control bait/prey in pull-down assays; also called GST (negative control)

[1] = target: Sec7-6His recombinant protein (human) (UniProt Q99418); assay: calculated from the SPR KD (deltaG = RT ln KD)
[2] = target: Sec7-6His recombinant protein (human) (UniProt Q99418); assay: SPR (BIAcore T100), biotinylated a2N-01 captured on neutravidin, Sec7-6His as analyte, 1:1 fit
recombinant ARNO = target: T6, recombinant ARNO (human, UniProt Q99418 1-400, limits assumed); assay: cell-based or functional assay
T6 sequence (looked up): T2 sequence (Q99418 1-400)

T5 sequence (P08515 whole entry): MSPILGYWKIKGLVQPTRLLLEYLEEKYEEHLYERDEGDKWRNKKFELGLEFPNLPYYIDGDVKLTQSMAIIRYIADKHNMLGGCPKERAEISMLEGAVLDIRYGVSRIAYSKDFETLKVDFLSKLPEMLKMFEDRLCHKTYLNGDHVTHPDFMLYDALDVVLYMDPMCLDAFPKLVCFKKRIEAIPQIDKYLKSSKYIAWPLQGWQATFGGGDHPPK

For “Bio-VQFRDLNQNVSSFQR-Cys (VQFRDLNQNVSSFQRC) [a2N-03, AA 35-49 of a2N]”, the “interaction with Sec7-domain of ARNO” value (Sec7-domain of ARNO) was “interacts”, the “interaction of a2N-derived peptide with GST-ARNO(wt) in pull-down” value (GST-ARNO(wt); Western blot anti-GST, GST-only as control) was “specific interaction; also recorded: capable of interaction with ARNO” and the “interaction with ARNO (asterisk mark in Table 1)” value (GST-ARNO(wt); biotin-tagged peptides on streptavidin beads) was “Bio-VQFRDLNQNVSSFQR-Cys *”. For the same molecule, the “interaction with PB-domain of ARNO” value (PB-domain of ARNO) was “interacts equally well” and the “interaction with PH-domain of ARNO” value (PH-domain of ARNO) was “interacts equally well”.

B1: a2N-01 (peptide)
peptide: Biotin-MGSLFRSESMCLAQLFLC
modifications: cysteine pairing not given here
notes: Synthetic peptide from the mouse V-ATPase a2-subunit N-terminal tail; Bio- at N-terminus, extra Cys at C-terminus; also called a2N1-17; biotinylated a2N-01 peptide
B1 was tested, and the binding result (GST-only) was “no binding”, the free energy of binding [1] was -8.81 kcal/mol and the Kd [2] was 344 nM. For the same molecule, the koff [2] was 0.00086 s⁻¹ and the kon [2] was 2500 M⁻¹ s⁻¹.

With {FITC-βAla}-MGSLFRSESMCLAQLFLYGRKKRRQRRR [FITC-a2N-01-TAT] the “IC50 of inhibition of ARNO's GEF activity (radiolabel GDP/GTP-exchange assay, 5% PIP2 vesicles)” value (recombinant ARNO) was about 700 nM.
